doi:10.1101/2020.01.16.909523 (bioRxiv, 2020)

Biological target: PE5mt-PPE4mt heterodimer (His6 tag cleaved) (Mycobacterium tuberculosis, UniProt L7N695 1-102; P9WI43 1-180)
Experiment: SEC-MALS

Chain of PE5mt-PPE4mt heterodimer (His6 tag cleaved) (L7N695 whole entry, chain 1 of 2): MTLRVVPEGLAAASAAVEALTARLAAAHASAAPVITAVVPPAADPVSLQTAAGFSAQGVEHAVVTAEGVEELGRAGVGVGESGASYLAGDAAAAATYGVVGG
Chain of PE5mt-PPE4mt heterodimer (His6 tag cleaved) (P9WI43 1-180, chain 2 of 2): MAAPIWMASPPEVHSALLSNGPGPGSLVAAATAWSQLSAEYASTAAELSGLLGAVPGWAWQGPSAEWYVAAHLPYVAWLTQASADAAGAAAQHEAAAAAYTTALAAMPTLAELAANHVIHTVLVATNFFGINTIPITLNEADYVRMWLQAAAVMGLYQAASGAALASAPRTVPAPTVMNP

B1: EspG3mm (natural protein)
chain: MESMPNAVELTVENAWFIAEMVGAGTFPWVLAITTPYSDEAQRSAFFARQRDELTQLGLLSSDGVVNPAVAEWIKVVCFPERWLDLRYVGPGTGNGGEDLLRGIVAQSAGIMGKAGKAHPSFNTVVALRNAQLVTFTAMDIDDPRALVPVLGVGLSARPPARFEEFSMPMRVGARADERLRSGESLDEVLDYLGIPVSARPVVQAVFSGPRSYVEIVAGCNRDGEHTTTDVGLSIVDTTAGRVLVSPSRAFDGEWVSTFSAGTPFATAVAIDQLIANLPDGQWFPGQRLSRDFSSQPS
- stoichiometry N: 1
